Assays:
human LAG-3 on cells [1] = molecular target: T1, human LAG-3 on cells (human, UniProt P18627 23-525); test: FACS affinity test on cell surface human LAG-3
T1 construct: whole, on cells; also called cell surface human LAG-3; human LAG-3 expressing 293F cells
T1 sequence (looked up): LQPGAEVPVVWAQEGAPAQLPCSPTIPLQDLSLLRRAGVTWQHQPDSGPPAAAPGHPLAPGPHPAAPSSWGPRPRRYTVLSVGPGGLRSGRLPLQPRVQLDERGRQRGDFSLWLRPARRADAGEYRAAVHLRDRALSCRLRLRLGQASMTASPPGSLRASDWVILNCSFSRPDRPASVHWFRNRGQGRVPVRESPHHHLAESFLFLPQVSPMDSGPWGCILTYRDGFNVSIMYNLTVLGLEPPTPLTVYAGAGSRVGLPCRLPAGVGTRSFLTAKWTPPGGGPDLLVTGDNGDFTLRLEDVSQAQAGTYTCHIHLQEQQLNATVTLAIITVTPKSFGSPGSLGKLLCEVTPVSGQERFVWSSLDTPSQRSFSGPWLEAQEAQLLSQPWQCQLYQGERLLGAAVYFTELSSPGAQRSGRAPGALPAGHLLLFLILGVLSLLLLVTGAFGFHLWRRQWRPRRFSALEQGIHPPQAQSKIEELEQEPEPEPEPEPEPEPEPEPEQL

[2] = molecular target: cynomolgus LAG-3 (Example 3) (cynomolgus); test: method not stated
[3] = molecular target: T2, human LAG-3 protein (Example 3) (human, UniProt P18627 23-450, limits assumed); test: ELISA; blocking of LAG-3 protein binding to Galectin-3; ELISA; blocking LAG-3 binding to Galectin-3
T2 construct: human is stated for the SPR test
T2 sequence (looked up): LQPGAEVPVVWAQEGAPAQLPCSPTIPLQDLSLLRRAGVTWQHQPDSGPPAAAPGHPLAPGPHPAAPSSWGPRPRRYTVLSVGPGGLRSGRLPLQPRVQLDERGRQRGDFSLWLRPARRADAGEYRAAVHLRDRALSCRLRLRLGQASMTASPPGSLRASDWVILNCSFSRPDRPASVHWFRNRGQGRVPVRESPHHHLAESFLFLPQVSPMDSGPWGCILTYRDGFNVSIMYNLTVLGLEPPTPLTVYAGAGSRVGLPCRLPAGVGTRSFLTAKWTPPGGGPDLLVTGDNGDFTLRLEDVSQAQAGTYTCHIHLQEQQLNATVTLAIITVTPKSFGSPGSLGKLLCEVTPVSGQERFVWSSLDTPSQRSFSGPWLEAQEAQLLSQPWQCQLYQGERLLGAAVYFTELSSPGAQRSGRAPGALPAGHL

human LAG-3 on cells [4] = molecular target: T1, human LAG-3 on cells; test: FACS on cell surface human LAG-3
[5] = molecular target: T2, human LAG-3 protein (Example 3); test: FACS; blocking of LAG-3 protein binding to MHC-II on Raji cells; FACS; blocking LAG-3 binding to MHC-II on Raji cells
[6] = molecular target: T2, human LAG-3 protein (Example 3); test: ELISA; blocking of LAG-3 protein binding to LSECtin; ELISA; blocking LAG-3 binding to LSECtin
[7] = molecular target: T2, human LAG-3 protein (Example 3); test: SPR; SPR, direct binding
[8] = molecular target: T3, mouse Fc-tagged human LAG-3 protein (human, UniProt P18627 23-450); test: flow cytometry; blocking of mFc-LAG-3 binding to MHC-II on Raji cells
T3 construct: extracellular domain; also called mouse Fc-tagged LAG-3 protein; not shown: mouse Fc tag
T3 sequence (looked up): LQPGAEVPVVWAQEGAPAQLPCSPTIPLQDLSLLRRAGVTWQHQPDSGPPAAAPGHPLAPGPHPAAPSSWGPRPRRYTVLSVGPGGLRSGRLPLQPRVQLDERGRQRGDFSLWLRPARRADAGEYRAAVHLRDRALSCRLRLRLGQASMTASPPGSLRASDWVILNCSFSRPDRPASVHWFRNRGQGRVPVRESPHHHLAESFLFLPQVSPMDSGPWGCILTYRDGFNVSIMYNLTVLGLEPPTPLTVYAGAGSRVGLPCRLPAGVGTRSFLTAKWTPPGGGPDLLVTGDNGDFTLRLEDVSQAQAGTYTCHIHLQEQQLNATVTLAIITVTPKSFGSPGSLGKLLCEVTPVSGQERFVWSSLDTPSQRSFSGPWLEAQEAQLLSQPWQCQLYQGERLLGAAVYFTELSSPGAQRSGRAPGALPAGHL
Experimental: The mixture was transferred into the 96-well plates seeded with Raji cells which express MHC-II on the surface. […] The MFI was evaluated by flow cytometry and analyzed by the software FlowJo.

[9] = molecular target: T4, mouse Fc-tagged human PD-1 protein (human, UniProt Q15116 25-170); test: dual-binding ELISA; mFc-PD-1 coated, antibody titrated, detected by His-tagged LAG-3 and anti-His-HRP
T4 construct: extracellular domain; also called mouse Fc-tagged PD-1 protein; not shown: mouse Fc tag

human CTLA-4 protein = molecular target: T5, human CTLA-4 protein (human, UniProt P16410 36-161); test: ELISA, human CTLA-4 coated at 1 ug/mL, antibody added at 0.67 and 6.7 nM, OD450
T5 construct: extracellular domain
Experimental: (§1) Cross-reactivity to human CD4, CTLA-4 or CD28 was measured by ELISA. Plates were coated with human CD4, CTLA-4 or CD28 at 1 μg/mL overnight at 4° C. […] The plates were then washed and subsequently incubated with corresponding secondary antibody for 60 min. After washing, TMB substrate was added and the color reaction was stopped by 2M HCl.

mouse PD-1 protein = molecular target: T6, mouse PD-1 protein (mouse, UniProt Q02242 25-167, limits assumed); test: ELISA, antibody coated on the plate, mouse PD-1 (His tag on the sheet) added at 0.25, 2.5 and 25 nM, OD450
T6 sequence (looked up): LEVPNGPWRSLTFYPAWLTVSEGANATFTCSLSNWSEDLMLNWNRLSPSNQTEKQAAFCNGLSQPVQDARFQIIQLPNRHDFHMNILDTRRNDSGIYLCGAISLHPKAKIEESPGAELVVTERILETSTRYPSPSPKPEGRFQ
Experimental: After blocking and washing, various concentrations of mouse PD-1 protein were added to the plates and incubated at room temperature for 1 hour. The plates were then washed and subsequently incubated with HRP-labeled goat anti-mouse IgG antibody for 1 hour. After washing, TMB substrate was added and the color reaction was stopped by 2M HCl. The absorbance at 450 nm was read using a microplate reader.

[10] = molecular target: T3, mouse Fc-tagged human LAG-3 protein; test: ELISA; antibody coated, mFc-tagged LAG-3 titrated
Experimental: The plates were then washed and subsequently incubated with HRP-labeled goat anti-mouse IgG antibody for 1 hour. After washing, TMB substrate was added and the color reaction was stopped by 2M HCl. The absorbance at 450 nm was read using a microplate reader.

human CD28 protein = molecular target: T7, human CD28 protein (human, UniProt P10747 19-152); test: ELISA, human CD28 coated at 1 ug/mL, antibody added at 0.67 and 6.7 nM, OD450
T7 construct: extracellular domain
Experimental: as §1

[11] = molecular target: T8, His-tagged human PD-1 protein (MW: 40 KD) (human, UniProt Q15116 25-167); test: SPR Biacore 8K; antibody captured on anti-human Fc, His-PD-1 injected
T8 construct: not shown: His tag
Experimental: Binding affinity of the bispecific antibodies to the antigen were determined by SPR assay using Biacore 8K. PD-1×LAG-3 antibodies were captured on an anti-human IgG Fc antibody immobilized CMS sensor chip (GE).
(§2) The sensorgrams of blank surface and buffer channel were subtracted from the test sensorgrams. The experimental data was fitted by 1:1 model using Langmiur analysis.

Human LAG-3 without tag = molecular target: T9, Human LAG-3 without tag (human, UniProt P18627 23-450); test: SPR; antibody immobilized, untagged human LAG-3 injected, single-cycle kinetics
T9 construct: extracellular domain; also called untagged LAG-3 ECD protein
T9 sequence (looked up): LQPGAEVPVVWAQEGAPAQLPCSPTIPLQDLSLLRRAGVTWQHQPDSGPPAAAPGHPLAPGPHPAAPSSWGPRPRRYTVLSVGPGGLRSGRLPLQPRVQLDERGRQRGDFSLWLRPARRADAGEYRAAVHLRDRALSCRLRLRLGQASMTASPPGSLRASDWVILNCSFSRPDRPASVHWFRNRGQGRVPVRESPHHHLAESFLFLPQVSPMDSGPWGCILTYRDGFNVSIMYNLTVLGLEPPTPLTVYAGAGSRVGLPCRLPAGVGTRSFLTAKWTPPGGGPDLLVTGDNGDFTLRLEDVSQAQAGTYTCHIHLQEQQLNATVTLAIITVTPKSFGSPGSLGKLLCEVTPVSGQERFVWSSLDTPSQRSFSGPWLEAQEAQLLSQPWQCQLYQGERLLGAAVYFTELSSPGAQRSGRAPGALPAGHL
Experimental: The chip was regenerated with 10 mM glycine (pH 1.5).
as §2

cynomolgus PD-1 on cells = molecular target: T10, cynomolgus PD-1 on cells (cynomolgus, UniProt B0LAJ3 25-288); test: flow cytometry on cynomolgus PD-1 expressing 293F cells
T10 construct: also called cell surface cynomolgus PD-1
Experimental: (§3) MFI of the cells was measured by flow cytometry and analyzed by FlowJo.

human PD-1 on cells [12] = molecular target: T11, human PD-1 on cells (human, UniProt Q15116 25-288); test: flow cytometry; competition with mFc-PD-L1 on PD-1 expressing CHO-S cells
T11 construct: whole, on cells; also called cell surface human PD-1; PD-1 expressing CHO-S cells
Experimental: The mixture was transferred into the 96-well plates seeded with PD-1 expressing CHO-S cells. […] The MFI was evaluated by flow cytometry and analyzed by the software FlowJo.

human CD4 protein = human CD4 protein (human, UniProt P01730 26-390, limits assumed); test: ELISA, human CD4 coated at 1 ug/mL, antibody added at 0.67 and 6.7 nM, OD450
Experimental: as §1

human PD-1 on cells [13] = molecular target: T11, human PD-1 on cells; test: cell-based or functional assay
[14] = molecular target: T12, cynomolgus LAG-3 on cells (cynomolgus); test: flow cytometry on cynomolgus LAG-3 expressing 293F cells
T12 construct: whole, on cells; also called cell surface cynomolgus LAG-3
Experimental: as §3

[15] = molecular target: T4, mouse Fc-tagged human PD-1 protein; test: ELISA; antibody coated, mFc-tagged PD-1 titrated
human LAG-3 on cells [16] = molecular target: T1, human LAG-3 on cells; test: flow cytometry on human LAG-3 expressing 293F cells
Experimental: (§4) MFI of the cells was measured by flow cytometry and analyzed by FlowJo (version 7.6.1).

human PD-1 on cells [17] = molecular target: T11, human PD-1 on cells; test: flow cytometry on human PD-1 expressing cells
Experimental: as §4

human LAG-3 on cells [18] = molecular target: T1, human LAG-3 on cells; test: cell-based or functional assay

T11 sequence (Q15116 25-288): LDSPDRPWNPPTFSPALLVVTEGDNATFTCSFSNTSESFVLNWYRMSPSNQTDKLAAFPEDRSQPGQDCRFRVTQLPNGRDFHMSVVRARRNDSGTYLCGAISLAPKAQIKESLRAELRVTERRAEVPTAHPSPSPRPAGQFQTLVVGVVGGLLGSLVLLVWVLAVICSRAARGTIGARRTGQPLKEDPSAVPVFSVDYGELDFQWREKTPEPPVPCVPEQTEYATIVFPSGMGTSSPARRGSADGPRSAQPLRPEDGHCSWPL
T8 sequence (Q15116 25-167 limits assumed): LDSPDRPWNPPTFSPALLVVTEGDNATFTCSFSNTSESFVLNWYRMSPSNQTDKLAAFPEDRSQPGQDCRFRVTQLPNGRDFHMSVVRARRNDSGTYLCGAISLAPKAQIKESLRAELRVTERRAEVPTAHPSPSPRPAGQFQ
T4 sequence (Q15116 25-170): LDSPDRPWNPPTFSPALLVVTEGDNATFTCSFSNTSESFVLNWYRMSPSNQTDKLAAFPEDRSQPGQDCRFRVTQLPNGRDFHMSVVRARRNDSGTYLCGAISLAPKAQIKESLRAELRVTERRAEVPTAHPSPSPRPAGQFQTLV
T10 sequence (B0LAJ3 entry or part of it limits assumed): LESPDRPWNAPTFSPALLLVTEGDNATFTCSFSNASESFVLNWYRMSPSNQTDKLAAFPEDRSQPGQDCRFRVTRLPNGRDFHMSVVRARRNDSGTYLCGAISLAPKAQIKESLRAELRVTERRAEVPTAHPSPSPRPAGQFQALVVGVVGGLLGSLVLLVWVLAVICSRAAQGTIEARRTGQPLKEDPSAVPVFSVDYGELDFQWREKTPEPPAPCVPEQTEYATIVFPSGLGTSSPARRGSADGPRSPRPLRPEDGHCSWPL
T5 sequence (P16410 36-161): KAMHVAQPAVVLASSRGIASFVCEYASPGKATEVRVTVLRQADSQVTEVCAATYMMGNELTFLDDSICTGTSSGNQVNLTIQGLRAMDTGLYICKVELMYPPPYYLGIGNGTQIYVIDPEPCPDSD

B1: W3395-3.40.19 (antibody, V domains shown)
VH: QLQLQESGPGLVKPSETLSLTCTVSGDSISSTSYYWGWIRQPPGKGLEWIGSFYYSGSTYYNPSLKSRVTISVDTSKNQFSLKLNSVTAADTAVYYCARMQLWSYDVDVWGQGTTVTVSS
VL: QSALTQPASVSGSPGQSITISCTGTSSDVGGYDYVAWYQQHPGKVPKLMIYDVSERPSGVSNRFSGSKSGNTASLTISGLQAEDEADYYCSSYTSTTTLVVFGGGTKLSVL
notes: Fully human monoclonal anti-LAG-3 antibody; also called human W3395-3.40.19 LAG-3 Ab
Question: With B1 as the binder, how does the Kd (human LAG-3 on cells [1]) read?
Answer: 0.053 nM

Question: What about the EC50 [2] of the same binder?
Answer: 3.92 nM

Question: What about the EC50 [3] of the same binder?
Answer: 0.56 nM

Question: And the EC50 (human LAG-3 on cells [4])?
Answer: 0.13 nM

Question: And the EC50 [5]?
Answer: 0.67 nM

Question: And the EC50 [6]?
Answer: 0.51 nM

Question: What about the Kd [7] of the same binder?
Answer: 0.0106 nM

B2: W365-U6T1.G15-1.uIgG4.SP (bispecific antibody)
heavy: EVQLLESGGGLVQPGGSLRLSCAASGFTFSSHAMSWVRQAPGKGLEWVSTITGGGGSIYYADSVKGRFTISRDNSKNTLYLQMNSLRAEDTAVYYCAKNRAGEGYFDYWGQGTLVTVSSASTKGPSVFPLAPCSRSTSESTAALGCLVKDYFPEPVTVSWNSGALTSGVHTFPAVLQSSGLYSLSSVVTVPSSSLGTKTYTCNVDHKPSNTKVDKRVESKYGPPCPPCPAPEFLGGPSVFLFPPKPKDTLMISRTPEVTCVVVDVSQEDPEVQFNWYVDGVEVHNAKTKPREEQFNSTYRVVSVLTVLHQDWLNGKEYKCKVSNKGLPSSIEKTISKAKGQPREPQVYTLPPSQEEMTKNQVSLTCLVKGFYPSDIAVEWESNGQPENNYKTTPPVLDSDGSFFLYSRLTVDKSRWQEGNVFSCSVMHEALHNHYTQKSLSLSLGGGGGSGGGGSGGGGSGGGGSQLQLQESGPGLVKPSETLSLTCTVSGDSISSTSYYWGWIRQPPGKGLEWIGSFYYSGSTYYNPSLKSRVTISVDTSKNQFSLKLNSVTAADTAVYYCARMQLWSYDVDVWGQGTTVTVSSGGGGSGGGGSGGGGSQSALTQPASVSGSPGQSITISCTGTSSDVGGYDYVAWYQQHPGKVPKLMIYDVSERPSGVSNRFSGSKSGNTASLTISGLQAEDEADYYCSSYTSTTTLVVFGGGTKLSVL
light: SYELTQPLSVSVALGQTARITCGGDNIGNKDVHWYQQKPGQAPVLVIYRDSNRPSGIPEGFSGSNSGNTATLTISRAQAGDEADYYCQVWDSIWVFGGGTKLTVLGQPKAAPSVTLFPPSSEELQANKATLVCLISDFYPGAVTVAWKADSSPVKAGVETTTPSKQSNNKYAASSYLSLTPEQWKSHKSYSCQVTHEGSTVEKTVAPTECS
notes: Anti-PD-1 (W3055-1.153.7) human IgG4 S228P; also called W365-G15
Question: With B2 as the binder, how does the IC50 [8] read?
Answer: 1.68 nM

Question: And the EC50 [9]?
Answer: 0.05 nM

Question: Does B2 bind (human CTLA-4 protein)?
Answer: no binding (tested: 6.7 nM)

Question: Does B2 bind (mouse PD-1 protein)?
Answer: no binding (tested: 25 nM (mouse PD-1))

Question: What about the EC50 [10] of the same binder?
Answer: 0.32 nM

Question: Does B2 bind (human CD28 protein)?
Answer: no binding (tested: 6.7 nM)

Question: What about the Kd [11] of the same binder?
Answer: 2.16 nM

Question: And the koff [11]?
Answer: 0.000592 s⁻¹

Question: What about the kon [11] of the same binder?
Answer: 275000 M⁻¹ s⁻¹

Question: What about the Kd (Human LAG-3 without tag) of the same binder?
Answer: 0.0265 nM

Question: What about the koff (Human LAG-3 without tag) of the same binder?
Answer: 1.89e-05 s⁻¹

Question: And the kon (Human LAG-3 without tag)?
Answer: 714000 M⁻¹ s⁻¹

Question: What about the EC50 (cynomolgus PD-1 on cells) of the same binder?
Answer: 0.31 nM

Question: What about the IC50 (human PD-1 on cells [12]) of the same binder?
Answer: 1.09 nM

Question: Does B2 bind (human CD4 protein)?
Answer: no binding (tested: 6.7 nM)

Question: What about the “EC50 of NFAT pathways enhancement (luciferase reporter)” value (human PD-1 on cells [13]) of the same binder?
Answer: 0.41 nM

Question: What about the EC50 [14] of the same binder?
Answer: 20.9 nM

Question: What about the EC50 [15] of the same binder?
Answer: 0.07 nM

Question: And the EC50 (human LAG-3 on cells [16])?
Answer: 5.88 nM

Question: And the EC50 (human PD-1 on cells [17])?
Answer: 1.34 nM

Question: What about the “EC50 of IL-2 pathways enhancement (luciferase reporter)” value (human LAG-3 on cells [18]) of the same binder?
Answer: 0.32 nM
